Results: patent US12692303

Biological target: IL-23-p40 (human) (UniProt P29460)
Test: Binding ELISA: IL-23-p40 coated at 2 ug/ml, antibody dilution series 0 to 5 ug/ml, goat anti-human IgG secondary antibody, OD450 (reference 650 nm). The sheet prints no unit on the x axis; ng/ml follows from the range in paragraph 77 (highest point at 5000)

IL-23-p40 (human), sequence (P29460 23-328 limits assumed): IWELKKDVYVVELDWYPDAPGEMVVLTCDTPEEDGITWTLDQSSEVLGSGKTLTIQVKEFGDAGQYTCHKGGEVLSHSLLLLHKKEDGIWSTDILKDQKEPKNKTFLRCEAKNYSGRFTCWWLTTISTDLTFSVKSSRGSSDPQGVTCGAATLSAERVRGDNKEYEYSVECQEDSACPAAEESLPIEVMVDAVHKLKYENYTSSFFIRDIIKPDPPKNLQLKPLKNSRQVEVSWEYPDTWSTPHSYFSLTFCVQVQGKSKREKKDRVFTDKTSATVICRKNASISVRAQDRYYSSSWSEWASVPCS

EC50: 0.0179 µg/mL
Substance: IL-23 p40 specific antibody QX001S
